Laboratory results from US20150074844A1 (PURDUE RESEARCH FOUNDATION, published 2015).

B1: PYL12 fused to the GAL4-DNA binding domain (BD) (receptor, not shown: large carriers; small tags and cut ends)
chain: MKTSQEQHVCGSTVVQTINAPLPLVWSILRRFDNPKTFKHFVKTCKLRSGDGGEGSVREVTVVSDLPASFSLERLDELDDESHVMVISIIGGDHRLVNYQSKTTVFVAAEEEKTVVVESYVVDVPEGNTEEETTLFADTIVGCNLRSLAKLSEKMMELT
notes: Yeast two-hybrid construct
B2: PYL11 fused to the GAL4-DNA binding domain (BD) (receptor, not shown: small tags and cut ends)
chain: METSQKYHTCGSTLVQTIDAPLSLVWSILRRFDNPQAYKQFVKTCNLSSGDGGEGSVREVTVVSGLPAEFSRERLDELDDESHVMMISIIGGDHRLVNYRSKTMAFVAADTEEKTVVVESYVVDVPEGNSEEETTSFADTIVGFNLKSLAKLSERVAHLKL
notes: Yeast two-hybrid construct
B3: PYL11-nLUC (receptor)
chain: B2 chain
notes: LUC complementation assay in protoplasts; also called PYLs-nLUC; not shown: N-terminal domain of firefly luciferase
B4: c-myc-tagged PYL13 (other)
chain: MESSKQKRCRSSVVETIEAPLPLVWSILRSFDKPQAYQRFVKSCTMRSGGGGGKGGEGKGSVRDVTLVSGFPADFSTERLEELDDESHVMVVSIIGGNHRLVNYKSKTKVVASPEDMAKKTVVVESYVVDVPEGTSEEDTIFFVDNIIRYNLTSLAKLTKKMMK
notes: Transiently expressed in Col-0 protoplasts for co-IP; also called c-myc-PYL13; MYC-PYL13; not shown: c-myc tag
B5: PYL13 fused to the GAL4-activating domain (AD) (other, not shown: large carriers)
chain: B4 chain
notes: also called AD-PYL13

Experiments:
[1] = target: ABI1 without tag (purified recombinant) (Arabidopsis) (UniProt P49597); experiment: cell-based or functional assay
ABI1 without tag (purified recombinant) (Arabidopsis), sequence (P49597 whole entry): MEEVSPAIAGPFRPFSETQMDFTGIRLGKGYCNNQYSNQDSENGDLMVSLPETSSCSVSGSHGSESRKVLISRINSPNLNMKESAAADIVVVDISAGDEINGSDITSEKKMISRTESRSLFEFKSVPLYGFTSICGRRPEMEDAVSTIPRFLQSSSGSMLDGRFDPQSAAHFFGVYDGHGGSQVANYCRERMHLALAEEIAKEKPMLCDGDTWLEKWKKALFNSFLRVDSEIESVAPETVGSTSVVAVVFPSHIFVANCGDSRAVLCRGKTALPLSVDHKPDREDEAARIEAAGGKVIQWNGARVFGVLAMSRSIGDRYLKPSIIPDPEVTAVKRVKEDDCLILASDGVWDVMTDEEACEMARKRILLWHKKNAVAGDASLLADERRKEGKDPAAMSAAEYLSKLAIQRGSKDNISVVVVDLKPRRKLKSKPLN

[2] = target: B5; experiment: yeast two-hybrid, growth on media lacking His and His/Ade, with and without ABA
Procedure: (§1) To confirm the interaction between PYL13 and PYL2/PYL9 and to determine whether PYL13 may bind with other PYLs, the interaction of PYL13 with PYLs was examined in yeast two-hybrid assays, as shown in FIG. 5. In this experiment, PYL13 interacted with PYR1, PYL1-4, PYL6, and PYL11-12 in an ABA-independent manner (FIG. 5A). PYL13 fused to the GAL4-activating domain (AD) was used as prey, and PYLs fused to the GAL4-DNA binding domain (BD) were used as baits. Interaction was determined by growth assay on media lacking His and His/Ade in the presence and absence of ABA. Dilutions (10⁻¹, 10⁻², and 10⁻³) of saturated cultures were spotted onto the plates, which were photographed after five days. […] Without wishing to be bound by theory, the lack of interaction between […] and PYL9 may be caused by the cellular differences between yeast and Arabidopsis or because of indirect interactions between the two proteins in Arabidopsis.

PYL13-cLUC = target: T1, PYL13-cLUC (Arabidopsis thaliana, UniProt Q9SN51 1-164); experiment: firefly luciferase complementation in protoplasts (stronger group)
T1 construct: LUC complementation assay in protoplasts; also called PYL13 fused to the C-terminal domain of LUC; not shown: C-terminal domain of firefly luciferase
T1 sequence: B4 chain
Procedure: To further characterize the interactions between PYL13 and PYLs in vivo, their interactions in protoplasts were examined by the firefly luciferase (LUC) complementation assay. PYL13 was fused to the C-terminal domain of LUC (PYL13-cLUC), and PYLs were fused to the N-terminal domain of LUC (PYLs-nLUC), and co-expressed in protoplasts. After transfection, protoplasts were incubated overnight under light at room temperature, and the LUC activities in living protoplasts were measured. Error bars indicate s.e.m. (n=6). […] PYL13 binds more strongly to PYR1, PYL1-5, PYL7, and PYL10-11 than to PYL6, PYL8-9, or PYL13 (FIG. 5B).

PP2CA-HA = target: T2, PP2CA-HA (Arabidopsis, UniProt P49598 1-399); experiment: co-IP from protoplasts with anti-HA agarose, western blot; with or without 10 µM ABA
T2 construct: also called hemagglutinin (HA)-tagged PP2CA; not shown: HA tag
T2 sequence (looked up): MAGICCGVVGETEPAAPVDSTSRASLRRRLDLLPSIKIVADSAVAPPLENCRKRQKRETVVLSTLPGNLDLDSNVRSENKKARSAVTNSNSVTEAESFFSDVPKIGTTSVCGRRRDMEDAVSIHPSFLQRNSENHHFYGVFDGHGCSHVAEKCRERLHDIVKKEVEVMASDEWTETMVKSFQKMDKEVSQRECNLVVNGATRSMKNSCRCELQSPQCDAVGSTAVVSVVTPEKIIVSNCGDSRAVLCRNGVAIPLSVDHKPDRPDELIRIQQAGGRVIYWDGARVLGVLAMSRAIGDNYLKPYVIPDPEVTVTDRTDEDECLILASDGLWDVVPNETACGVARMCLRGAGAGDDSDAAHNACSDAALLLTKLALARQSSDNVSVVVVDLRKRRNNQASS
Text: Coimmunoprecipitation (co-IP) assays using ABI1-HA and PP2CA-HA as baits captured c-myc-PYL13 in an ABA-independent manner (FIG. 3C). The binding of PP2CA with PYL13 again appeared much stronger than that of ABI1 with PYL13. […] Total soluble proteins (input) were extracted from Arabidopsis protoplasts that transiently expressed the indicated constructs. PP2C-interacting proteins were immunoprecipitated with anti-HA mouse antibodies and detected with anti-HA and anti-cMYC rabbit antibodies.
PP2CA-HA, ABI1-HA, and MYC-PYL13 plasmids (20 μg each) were transiently expressed in wild-type (Col-0) protoplasts. After transfection, protoplasts were incubated in WI buffer under light at room temperature for 16.5 h. Protoplasts were treated with 10 μM ABA for 1.5 h before they were harvested, frozen in liquid N2, and stored at −80° C. The frozen protoplasts were resuspended in 1 ml of immunoprecipitation (IP) buffer containing 50 mM Tris-HCl, pH 7.4, 150 mM NaCl, 1 mM EDTA, 0.1% (v/v) Triton X-100, and 1× protease inhibitor cocktail (SIGMA) with or without 10 μM ABA and then centrifuged at 21000 g for 30 min at 4° C. The supernatant was used as input and was incubated for 4 h at 4° C. with 30 μl of monoclonal anti-HA-agarose antibody produced in mouse (SIGMA, A2095). […]

[3] = target: T3, PYR1 fused to the GAL4-DNA binding domain (BD) (Arabidopsis thaliana, UniProt O49686 1-191); experiment: yeast two-hybrid, growth on media lacking His and His/Ade, with and without ABA
T3 construct: Yeast two-hybrid construct
T3 sequence: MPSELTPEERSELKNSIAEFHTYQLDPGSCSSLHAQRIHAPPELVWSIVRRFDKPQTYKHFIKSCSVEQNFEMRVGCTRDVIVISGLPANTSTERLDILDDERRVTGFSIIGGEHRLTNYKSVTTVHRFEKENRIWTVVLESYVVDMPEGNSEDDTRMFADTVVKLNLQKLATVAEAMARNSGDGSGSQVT
Procedure: as §1

[4] = target: T4, PYL3 fused to the GAL4-DNA binding domain (BD) (Arabidopsis thaliana, UniProt Q9SSM7 1-209); experiment: as above
T4 construct: Yeast two-hybrid construct
T4 sequence: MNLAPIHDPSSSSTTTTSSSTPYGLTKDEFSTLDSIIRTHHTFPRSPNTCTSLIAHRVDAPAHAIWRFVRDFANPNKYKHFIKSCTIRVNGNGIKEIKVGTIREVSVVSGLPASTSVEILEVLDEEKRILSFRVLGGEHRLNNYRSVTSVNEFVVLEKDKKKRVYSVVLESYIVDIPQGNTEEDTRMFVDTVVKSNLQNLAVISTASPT
Procedure: as §1

[5] = target: T5, PYL4 fused to the GAL4-DNA binding domain (BD) (Arabidopsis thaliana, UniProt O80920 1-207); experiment: as above
T5 construct: Yeast two-hybrid construct
T5 sequence: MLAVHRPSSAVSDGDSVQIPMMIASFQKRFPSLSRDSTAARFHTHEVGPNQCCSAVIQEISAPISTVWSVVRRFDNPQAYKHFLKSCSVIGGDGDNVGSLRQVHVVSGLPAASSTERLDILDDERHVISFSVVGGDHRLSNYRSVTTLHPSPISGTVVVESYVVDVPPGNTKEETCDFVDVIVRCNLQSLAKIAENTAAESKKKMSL
Procedure: as §1

[6] = target: T6, PYL6 fused to the GAL4-DNA binding domain (BD) (Arabidopsis thaliana, UniProt Q8S8E3 1-215); experiment: as above
T6 construct: Yeast two-hybrid construct
T6 sequence: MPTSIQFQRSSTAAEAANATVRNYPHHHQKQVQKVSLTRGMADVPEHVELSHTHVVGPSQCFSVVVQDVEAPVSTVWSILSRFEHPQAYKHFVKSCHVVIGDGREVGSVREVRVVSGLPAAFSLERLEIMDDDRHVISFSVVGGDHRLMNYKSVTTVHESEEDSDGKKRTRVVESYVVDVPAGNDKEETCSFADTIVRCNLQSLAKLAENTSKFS
Procedure: as §1

Which ABI1 phosphatase activity (pNPP, A405, % of ABI1 without ABA and PYLs), 10 µM ABA [1] does the source give for “PYL13-PYL2 protein complex (from UniProt Q9SN51 1-164; O80992 1-190)” here?
The ABI1 phosphatase activity (pNPP, A405, % of ABI1 without ABA and PYLs), 10 µM ABA was 78%.

Which ABI1 phosphatase activity (pNPP, A405, % of ABI1 without ABA and PYLs), 10 µM ABA [1] does the source give for “PYL13-PYL1 protein complex (from UniProt Q9SN51 1-164; Q8VZS8 1-221)” here?
Its ABI1 phosphatase activity (pNPP, A405, % of ABI1 without ABA and PYLs), 10 µM ABA is 88%.

With “PYL2 (purified recombinant protein, phosphatase assay) (from UniProt O80992 1-190) (receptor)” as the molecule, how does the ABI1 phosphatase activity (pNPP, A405, % of ABI1 without ABA and PYLs), 10 µM ABA, 0.3 µM each [1] read?
The ABI1 phosphatase activity (pNPP, A405, % of ABI1 without ABA and PYLs), 10 µM ABA, 0.3 µM each was 50%.

How did the ABI1 phosphatase activity (pNPP, A405, % of ABI1 without ABA and PYLs), 10 µM ABA, 0.3 µM each [1] turn out when “PYL1 (purified recombinant protein, phosphatase assay) (from UniProt Q8VZS8 1-221) (receptor)” was run?
The ABI1 phosphatase activity (pNPP, A405, % of ABI1 without ABA and PYLs), 10 µM ABA, 0.3 µM each was 67%.

Does B1 bind [2]?
Result: binds

Does B2 bind [2]?
Result: binds

Does B3 bind (PYL13-cLUC)?
Result: binds

Does B4 bind (PP2CA-HA)?
Result: binds

Does B5 bind [3]?
Result: binds

Does B5 bind [4]?
Result: binds

Does B5 bind [5]?
Result: binds

Does B5 bind [6]?
Result: binds
